Test results as given in PMC7924223, “Functionalization of the BCL6 BTB domain into a noncovalent crystallization chaperone” (IUCrJ, 2021).

Molecular target: BCL6 BTB domain (BCL6^BTB), residues 6-129 with C8Q, C67R and C84N (human, UniProt P41182 6-129, C8Q | C67R | C84N)
Assay: crystal structure; co-crystallization at 298 K; BCL6 proteins at 300 µM (monomer) in 20 mM HEPES pH 7.5, 300 mM NaCl, 3 mM β-mercaptoethanol; NCoR1^BBD1 peptide in 4:1, NCoR1^BBD2 peptide in 8:1 molar excess; the complex with nebulin^SH3-NCoR1^BBD1 purified by size-exclusion chromatography before crystallization
Conditions: both partners purified

binding result: binds
B1: NCoR1^BBD1 peptide (high-affinity BCL6-binding domain 1 of the corepressor NCoR1) (peptide)
peptide: GITTIKEMGRSIHEIPR
notes: source: synthetic peptide (GL Biochem Shanghai Ltd)
